Among the data in publication PMC12358912, “NIPBL and STAG1 enable loop extrusion by providing differential DNA–cohesin affinity” (Proceedings of the National Academy of Sciences of the …, 2024) are Kd values, retold here.

In test [1] the target is T1, SMC1/SMC3/SCC1 cohesin Trimer (UniProt Q14683 1-1233; Q9UQE7 1-1217; O60216 1-631).
T1 construct: SMC1 subunit of the cohesin Trimer; SMC3 subunit of the cohesin Trimer; kleisin SCC1 (also known as RAD21 or Mcd1) of the cohesin Trimer; also called the cohesin Trimer; Trimer (SMC1/SMC3/SCC); copies: + +
In words: mass photometry; in solution; KD from evaluating the individual mass distributions of the STAG1 and cohesin Trimer mixtures directly (single-shot). The conditions noted are these: both partners purified.

Test [2] deals with T1, SMC1/SMC3/SCC1 cohesin Trimer. The test can be described thus: mass photometry; in solution; titration at constant cohesin Trimer (50 nM total protein, 12.6 ± 0.9 nM effective Trimer), STAG1 3 to 30 nM, six concentrations with 3 technical repeats each; incubated to equilibrium; molar fraction of the complex fitted to the Hill equation. The conditions noted are these: both partners purified.

T1 sequence (Q14683 whole entry, chain 1 of 3): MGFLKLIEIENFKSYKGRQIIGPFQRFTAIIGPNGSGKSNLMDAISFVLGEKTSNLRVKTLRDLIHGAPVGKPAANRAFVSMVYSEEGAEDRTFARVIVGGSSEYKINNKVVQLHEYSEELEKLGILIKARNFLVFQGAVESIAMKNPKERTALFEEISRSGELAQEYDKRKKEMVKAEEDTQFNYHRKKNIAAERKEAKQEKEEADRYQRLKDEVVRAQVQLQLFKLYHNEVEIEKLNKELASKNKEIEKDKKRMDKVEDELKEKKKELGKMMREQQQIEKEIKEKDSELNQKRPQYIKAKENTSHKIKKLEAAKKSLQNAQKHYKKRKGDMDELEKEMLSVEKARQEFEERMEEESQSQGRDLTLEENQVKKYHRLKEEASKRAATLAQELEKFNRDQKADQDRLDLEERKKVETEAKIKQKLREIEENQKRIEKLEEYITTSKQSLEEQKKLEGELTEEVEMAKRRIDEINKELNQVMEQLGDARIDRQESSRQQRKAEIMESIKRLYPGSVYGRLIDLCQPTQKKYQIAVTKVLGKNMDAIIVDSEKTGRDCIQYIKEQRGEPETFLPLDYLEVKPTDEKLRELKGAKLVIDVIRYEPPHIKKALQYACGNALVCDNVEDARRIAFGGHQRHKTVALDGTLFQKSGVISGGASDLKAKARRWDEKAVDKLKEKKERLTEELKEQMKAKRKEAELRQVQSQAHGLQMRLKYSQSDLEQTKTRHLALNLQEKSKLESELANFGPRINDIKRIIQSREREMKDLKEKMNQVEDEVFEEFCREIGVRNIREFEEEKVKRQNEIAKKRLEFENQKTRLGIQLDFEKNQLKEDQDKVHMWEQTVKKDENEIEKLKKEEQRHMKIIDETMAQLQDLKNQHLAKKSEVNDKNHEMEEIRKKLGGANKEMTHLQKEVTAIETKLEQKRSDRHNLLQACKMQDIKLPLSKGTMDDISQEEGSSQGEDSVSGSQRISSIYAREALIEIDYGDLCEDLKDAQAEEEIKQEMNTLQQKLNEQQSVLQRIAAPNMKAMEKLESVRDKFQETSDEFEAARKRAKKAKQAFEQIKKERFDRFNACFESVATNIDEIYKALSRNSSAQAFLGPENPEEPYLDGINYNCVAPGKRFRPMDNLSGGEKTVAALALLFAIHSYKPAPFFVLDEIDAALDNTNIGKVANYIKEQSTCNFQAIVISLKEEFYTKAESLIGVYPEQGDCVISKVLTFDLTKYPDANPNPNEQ
T1 sequence (Q9UQE7 whole entry, chain 2 of 3): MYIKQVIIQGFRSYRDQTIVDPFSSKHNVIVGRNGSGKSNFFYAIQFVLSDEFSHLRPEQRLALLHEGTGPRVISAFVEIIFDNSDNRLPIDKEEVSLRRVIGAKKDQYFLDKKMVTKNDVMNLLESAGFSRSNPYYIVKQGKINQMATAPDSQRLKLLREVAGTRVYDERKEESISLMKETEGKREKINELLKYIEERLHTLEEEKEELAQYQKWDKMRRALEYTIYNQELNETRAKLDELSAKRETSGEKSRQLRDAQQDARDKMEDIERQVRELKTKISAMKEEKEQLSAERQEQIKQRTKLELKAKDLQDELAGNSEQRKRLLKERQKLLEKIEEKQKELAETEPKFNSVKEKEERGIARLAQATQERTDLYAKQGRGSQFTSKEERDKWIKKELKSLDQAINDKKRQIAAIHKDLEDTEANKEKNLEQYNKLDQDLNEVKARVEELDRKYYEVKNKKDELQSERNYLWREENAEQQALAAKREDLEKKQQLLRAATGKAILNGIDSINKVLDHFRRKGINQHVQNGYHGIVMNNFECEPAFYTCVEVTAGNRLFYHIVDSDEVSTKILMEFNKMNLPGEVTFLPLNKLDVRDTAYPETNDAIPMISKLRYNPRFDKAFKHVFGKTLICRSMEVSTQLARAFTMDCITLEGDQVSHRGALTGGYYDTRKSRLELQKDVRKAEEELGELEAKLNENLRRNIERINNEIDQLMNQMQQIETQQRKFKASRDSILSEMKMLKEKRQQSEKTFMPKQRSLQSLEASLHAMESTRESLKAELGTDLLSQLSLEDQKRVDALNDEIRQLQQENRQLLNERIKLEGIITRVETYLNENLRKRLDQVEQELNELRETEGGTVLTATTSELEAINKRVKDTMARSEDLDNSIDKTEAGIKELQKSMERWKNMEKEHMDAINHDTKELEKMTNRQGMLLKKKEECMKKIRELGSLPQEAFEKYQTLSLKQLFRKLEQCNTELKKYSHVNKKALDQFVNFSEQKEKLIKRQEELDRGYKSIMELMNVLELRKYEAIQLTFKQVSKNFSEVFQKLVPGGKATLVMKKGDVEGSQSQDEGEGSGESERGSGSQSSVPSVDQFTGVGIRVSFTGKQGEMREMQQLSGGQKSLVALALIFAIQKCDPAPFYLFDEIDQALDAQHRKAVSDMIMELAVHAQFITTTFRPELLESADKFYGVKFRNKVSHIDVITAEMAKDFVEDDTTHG
T1 sequence (O60216 whole entry, chain 3 of 3): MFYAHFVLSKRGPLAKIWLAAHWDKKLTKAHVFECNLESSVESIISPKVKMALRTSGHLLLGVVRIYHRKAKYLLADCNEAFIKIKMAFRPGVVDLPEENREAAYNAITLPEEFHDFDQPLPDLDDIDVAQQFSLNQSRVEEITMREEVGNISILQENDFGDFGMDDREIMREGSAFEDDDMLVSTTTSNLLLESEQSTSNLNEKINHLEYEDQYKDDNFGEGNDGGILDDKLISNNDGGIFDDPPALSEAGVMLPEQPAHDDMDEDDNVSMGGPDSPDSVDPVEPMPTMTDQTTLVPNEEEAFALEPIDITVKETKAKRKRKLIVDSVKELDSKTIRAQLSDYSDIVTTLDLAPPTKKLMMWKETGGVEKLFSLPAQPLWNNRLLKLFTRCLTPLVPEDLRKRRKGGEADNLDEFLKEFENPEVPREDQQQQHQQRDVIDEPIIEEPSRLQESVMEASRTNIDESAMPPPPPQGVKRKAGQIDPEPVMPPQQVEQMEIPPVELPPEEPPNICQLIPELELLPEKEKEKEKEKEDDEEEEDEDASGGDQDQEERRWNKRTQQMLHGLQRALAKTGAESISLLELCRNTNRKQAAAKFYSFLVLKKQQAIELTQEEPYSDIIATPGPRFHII

B1: STAG1 (natural protein, human, UniProt Q8WVM7 1-1258, looked up)
chain: MITSELPVLQDSTNETTAHSDAGSELEETEVKGKRKRGRPGRPPSTNKKPRKSPGEKSRIEAGIRGAGRGRANGHPQQNGEGEPVTLFEVVKLGKSAMQSVVDDWIESYKQDRDIALLDLINFFIQCSGCRGTVRIEMFRNMQNAEIIRKMTEEFDEDSGDYPLTMPGPQWKKFRSNFCEFIGVLIRQCQYSIIYDEYMMDTVISLLTGLSDSQVRAFRHTSTLAAMKLMTALVNVALNLSIHQDNTQRQYEAERNKMIGKRANERLELLLQKRKELQENQDEIENMMNSIFKGIFVHRYRDAIAEIRAICIEEIGVWMKMYSDAFLNDSYLKYVGWTLHDRQGEVRLKCLKALQSLYTNRELFPKLELFTNRFKDRIVSMTLDKEYDVAVEAIRLVTLILHGSEEALSNEDCENVYHLVYSAHRPVAVAAGEFLHKKLFSRHDPQAEEALAKRRGRNSPNGNLIRMLVLFFLESELHEHAAYLVDSLWESSQELLKDWECMTELLLEEPVQGEEAMSDRQESALIELMVCTIRQAAEAHPPVGRGTGKRVLTAKERKTQIDDRNKLTEHFIITLPMLLSKYSADAEKVANLLQIPQYFDLEIYSTGRMEKHLDALLKQIKFVVEKHVESDVLEACSKTYSILCSEEYTIQNRVDIARSQLIDEFVDRFNHSVEDLLQEGEEADDDDIYNVLSTLKRLTSFHNAHDLTKWDLFGNCYRLLKTGIEHGAMPEQIVVQALQCSHYSILWQLVKITDGSPSKEDLLVLRKTVKSFLAVCQQCLSNVNTPVKEQAFMLLCDLLMIFSHQLMTGGREGLQPLVFNPDTGLQSELLSFVMDHVFIDQDEENQSMEGDEEDEANKIEALHKRRNLLAAFSKLIIYDIVDMHAAADIFKHYMKYYNDYGDIIKETLSKTRQIDKIQCAKTLILSLQQLFNELVQEQGPNLDRTSAHVSGIKELARRFALTFGLDQIKTREAVATLHKDGIEFAFKYQNQKGQEYPPPNLAFLEVLSEFSSKLLRQDKKTVHSYLEKFLTEQMMERREDVWLPLISYRNSLVTGGEDDRMSVNSGSSSSKTSSVRNKKGRPPLHKKRVEDESLDNTWLNRTDTMIQTPGPLPAPQLTSTVLRENSRPMGDQIQEPESEHGSEPDFLHNPQMQISWLGQPKLEDLNRKDRTGMNYMKVRTGVRHAVRGLMEEDAEPIFEDVMMSSRSQLEDMNEEFEDTMVIDLPPSRNRRERAELRPDFFDSAAIIEDDSGFGMPMF
notes: human STAG1, a HAWK subunit of cohesin; measured at 148 ± 2 kDa by mass photometry; also called Scc3
Consider B1, for which the Kd in test [1] worked out at 5.4 ± 1.7 nM; in test [2] it was 6.2 ± 0.7 nM.

The Kd is the equilibrium constant for the complex coming apart.
